The text below walks through data of US20220396617A1.

Experiment [1] has as its target human TIGIT (ECD)-his (human) (UniProt Q495A1). The experiment is described as follows: ELISA, coated human TIGIT (ECD)-his (table head says FACS).
Experiment [2] shares this target. The experiment is described as follows: SPR (BIAcore 8K), human TIGIT (ECD)-his on CM5 chip, antibody injected. Background: Surface plasmon resonance follows binding to a sensor surface in real time, without labels.
The target of experiment [3] is TIGIT (ECD)-hFc (human) (UniProt Q495A1). The experiment can be described thus: FACS blocking assay: antibody preincubated with TIGIT (ECD)-hFc, binding to A549/human PVR cells.
The target is the same in experiment [4]. The experiment can be described thus: FACS blocking assay (protocol of Example 7): serially diluted antibody pre-incubated with TIGIT (ECD)-hFc, then binding of TIGIT (ECD)-hFc to A549/human PVR cells measured; blocked ligand: human PVR.
Experiment [5] shares this target. The experiment can be described thus: FACS blocking assay (protocol of Example 7): serially diluted antibody pre-incubated with TIGIT (ECD)-hFc, then binding of TIGIT (ECD)-hFc to A549/human PVR cells measured; blocked ligand: human PVR [A].
Experiment [6] has the same target. The experiment is described as follows: FACS blocking assay (protocol of Example 7): serially diluted antibody pre-incubated with TIGIT (ECD)-hFc, then binding of TIGIT (ECD)-hFc to A549/human PVR cells measured; blocked ligand: human PVR [B].

TIGIT (ECD)-hFc (human), sequence (Q495A1 22-141): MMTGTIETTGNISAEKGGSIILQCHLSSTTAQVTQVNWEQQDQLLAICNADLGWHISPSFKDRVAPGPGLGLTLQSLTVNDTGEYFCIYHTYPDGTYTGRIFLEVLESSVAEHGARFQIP
human TIGIT (ECD)-his (human), sequence (Q495A1 22-141): as above

As for Tiragolumab (antibody), the figures for the half-maximal effective concentration (EC50) (in experiment [1]; with TIGIT (ECD)-hFc (human) [3]) were 0.16 nM and 42 nM, respectively. Moreover, in experiment [2], the equilibrium dissociation constant (Kd) (usually a measure of binding affinity in units of concentration) is 0.00149 nM. Also, the IC50 (read off the curve) amounted to 3 µg/mL with TIGIT (ECD)-hFc (human) [4], 4 µg/mL with TIGIT (ECD)-hFc (human) [5] and 5 µg/mL with TIGIT (ECD)-hFc (human) [6].
